We go through 52 molecules from US20100279930A1 (published 2010).

Holding throughout (assay): 125I-PP displacement
Experiment [1] has as its target T1, human Y4 receptor (human, UniProt P50391 1-375).
Experiment [2] has as its target T1, human Y4 receptor. This is another data set of the same source.
The target in experiment [3] is T1, human Y4 receptor. This is another data set of the same source.
Experiment [4] deals with T1, human Y4 receptor. This is another data set of the same source.

Like-named read-outs stand apart in the source and are kept apart here. No end group written: not given here.

T1 sequence (P50391 whole entry): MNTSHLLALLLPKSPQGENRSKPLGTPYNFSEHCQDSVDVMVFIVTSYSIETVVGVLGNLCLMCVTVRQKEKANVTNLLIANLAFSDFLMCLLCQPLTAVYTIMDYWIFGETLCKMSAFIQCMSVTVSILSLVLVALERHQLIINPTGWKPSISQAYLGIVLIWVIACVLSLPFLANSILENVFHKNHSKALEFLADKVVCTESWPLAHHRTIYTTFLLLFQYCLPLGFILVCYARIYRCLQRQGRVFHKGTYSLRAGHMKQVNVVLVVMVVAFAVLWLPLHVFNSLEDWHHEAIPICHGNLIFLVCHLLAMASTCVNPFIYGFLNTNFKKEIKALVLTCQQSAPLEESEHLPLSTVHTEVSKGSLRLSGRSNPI

As to AAAPLEPVYPGDNATPEQMAQYAADLRRYINMLTRPRY [6655], the IC50 (usually the concentration that inhibits the measured activity by half) with human Y4 receptor [1] is 280 pM.

As for APLEPVYPGDNATPEQMARYYASLRHYLNMLTRPRY [6462], the IC50 in the experiment with human Y4 receptor [1] was determined as 180 pM.

In the experiment with human Y4 receptor [2], APLEPVYPGDNATPEQMAQYAADLRRYINILTRPRY (ends and bridges not checked) [compound of SEQ ID NO:259 (code 4055713)] yielded an IC50 of 220 pM.

Molecule APLEPVYPGDNATPEKMAQYAADLRRYINMLTRPRY [6466] had an IC50 with human Y4 receptor [1] of 1290 pM.

For APLEPVYPGDNATPEQMAQYAADLRRYINMLTRPRF (ends and bridges not checked) [compound of SEQ ID NO:255 (code 4055708)], the IC50 with human Y4 receptor [2] amounted to 160 pM.

In the experiment with human Y4 receptor [1], APLEPVYPGDNATPEQMAQYAADLRRYINLLTRPRY [6430] had an IC50 of 410 pM.

Molecule APLEPVYPGDDATPQQMAQYAAELRRYINMLTRPRY [6457] had an IC50 with human Y4 receptor [1] of 130 pM.

In the case of APLEPVYPGDNATPEQMAQYAADLRRYINMLTRPAY [6449], the IC50 in the experiment with human Y4 receptor [1] amounted to 2200 pM. This IC50 is about 17-fold higher than that of the molecule before.

Molecule APLEPEYPGDNATPEQMAQYAADLRRYINMLTRPRY (ends and bridges not checked) [compound of SEQ ID NO:276 (4055746)] came in with an IC50 in the experiment with human Y4 receptor [2] of 160 pM.

Molecule APLEPVYPGDNATPEQMARYAADLRRYINMLTRPRY [6606] came in with an IC50 with human Y4 receptor [1] of 160 pM.

As for APLEPVYPGDNATPEQMAQYAADLRRYINVLTRPRY (ends and bridges not checked) [compound of SEQ ID NO:260 (code 4055714)], the IC50 with human Y4 receptor [2] was 90 pM. In other words, the picomolar range.

In turn, APLEPVYPGDNATPEQMAQYAADLRRYINFLTRPRY (ends and bridges not checked) [compound of SEQ ID NO:261 (code 4055715)] returned an IC50 with human Y4 receptor [2] of 130 pM.

The molecule APLEPFYPGDNATPEQMAQYAAALRRYINMLTRPRY [6605] displayed an IC50 with human Y4 receptor [1] of 130 pM.

In turn, APLEPVYPGDNATPEQLAQYAADLRRYINMLTRPRY [6429] yielded an IC50 with human Y4 receptor [1] of 550 pM.

In the experiment with human Y4 receptor [1], APLKPVYPGDNATPEQMAQYAADLRRYINMLTRPRY [5920] registered an IC50 of 4500 pM.

As to KPLEPVYPGDNATPEQMAQYAADLRRYINMLTRPRY [6434], the half-inhibitory concentration (IC50) in the experiment with human Y4 receptor [1] amounted to 250 pM.

In the experiment with human Y4 receptor [1], APLEPVYPGDNATPEQMAQYAADLKRYINMLTRPRY [6432] displayed an IC50 of 360 pM.

In the experiment with human Y4 receptor [2], APLEPFYPGDNATPEQMAQYAADLRRYINMLTRPRY (ends and bridges not checked) [compound of SEQ ID NO:275 (code 4055745)] registered a 50% inhibitory concentration (IC50) of 170 pM.

In turn, APLEPVYPGDNATPEQMAQYAADLRRYINMLTAPRY [6450] gave a half-inhibitory concentration (IC50) with human Y4 receptor [1] of 8800 pM.

On to APLEPVYPGDNATPEQMAQYAAALRRYINMLTRPRY [compound of SEQ ID NO:277 (Ala 23, code 4055747)], for which the IC50 with human Y4 receptor [2] is 79 pM. In other words, the picomolar range.

In the case of APLEPVYPGDNATPEQMAQYAADLRHYINMLTRPRY [6438], in the experiment with human Y4 receptor [1], the IC50 is 490 pM.

For the molecule APLEPVYPGDNATHEQMAQYAADLRRYINMLTRPRY [6441], the concentration for half-maximal inhibition (IC50) with human Y4 receptor [1] was determined as 300 pM. This IC50 is about 1.6-fold lower than that of the molecule before.

APLEPVYPGDNATPEQMAQYAADLRKYINMLTRPRY [6431] had an IC50 with human Y4 receptor [1] of 470 pM. This IC50 is about 1.6-fold higher than that of the molecule before.

For the molecule KPLEPVYPGDNATPEQMAQYAADLRRYINMLTRPRY (not fully specified; lauryl-lysine at position 1 (replaces Ala 1)) [compound of SEQ ID NO:11 (code 6435)], the IC50 with human Y4 receptor [1] is 130 pM.

The molecule KPLEPVYPGDNATPEQMAQYAADLRRYINMLTRPRY [6436] showed an IC50 with human Y4 receptor [1] of 480 pM. This IC50 lies about 3.7-fold higher than the previous one.

In the case of APLEPVYPGDNATPEQMAQYAADLRRYINMLTKPRY [6452], in the experiment with human Y4 receptor [1], the IC50 stood at 420 pM.

Turning to APLEPVYPGDNATPEQMAQYAKDLRRYINMLTRPRY [6465], in the experiment with human Y4 receptor [1], the IC50 is 850 pM.

APLEPVYPGDNATPEQMAQYAADLRRYINKLTRPRY [compound of SEQ ID NO:281 (Lys 30, code 4055855)] yielded a half-inhibitory concentration (IC50) in the experiment with human Y4 receptor [2] of 160 pM. This lies in the sub-nanomolar range.

As to APLEPVYPGDYATPEQMAQYAADLRRYINMLTRPRY [6440], the IC50 with human Y4 receptor [1] was found to be 260 pM.

Consider APLEPVYPGDNATPEQMAHYYASLRRYINMLTRPRY [6640], for which the IC50 with human Y4 receptor [1] worked out at 150 pM.

Turning to APKEPVYPGDNATPEQMAQYAADLRRYINMLTRPRY [6463], the IC50 in the experiment with human Y4 receptor [1] was found to be 670 pM.

Regarding APLEPEYPGDNATPEQMAQYAAELRRYINMLTRPRY [6458], the IC50 with human Y4 receptor [1] was determined as 180 pM.

In turn, GPLEPVYPGDNATPEQMAQYAADLRRYINMLTRPRY [6636] registered an IC50 in the experiment with human Y4 receptor [1] of 600 pM.

As to APLKPVYPGDNATPEQMAQYAADLRRYINMLTRPRY [6443], the IC50 with human Y4 receptor [1] turned out to be 4000 pM. Compared with the last molecule, the IC50 is about 6.7-fold higher.

Consider APLEPVYPGDNATPEQMAQYAADLRRYINTLTRPRY [6437], for which the IC50 with human Y4 receptor [1] worked out at 300 pM.

Consider APLEPVYPGDNATPEQTAQYAADLRRYINTLTRPRY [6638], for which the IC50 with human Y4 receptor [1] was found to be 500 pM. This IC50 is about 1.7-fold higher than that of the molecule before.

Turning to APLEPVYPGDNATEEELVKYFIDLRRYINMLTRPRY [6622], the IC50 with human Y4 receptor [1] turned out to be 1200 pM.

APLEPVYPGDNATEEEAVRLFIDLRRYINMLTRPRY [6621] came in with an IC50 in the experiment with human Y4 receptor [1] of 16000 pM.

APLEPHYPGDNATPEEMAKYAAELRRYINKLTRPRY [4058696] returned an IC50 with human Y4 receptor [3] of 45 pM.

APLEPVYPGDNATPEELNRYYASLRRYINMLTRPRY [6460]: the IC50 with human Y4 receptor [1] was 200 pM.

In the experiment with human Y4 receptor [4], GAPLEPKYPGDNATPEEKAKYAAELRRYINKLTRPRY [4061236] showed an IC50 of 52 pM.

AAPLEPKYPGDNATPEELAKYAAELRRYINKLTRPRY [4058689] yielded an IC50 in the experiment with human Y4 receptor [3] of 98 pM.

The molecule PAPLEPKYPGDNATPEELAKYAAELRRYINKLTRPRY [4058671] returned an IC50 with human Y4 receptor [3] of 105 pM.

Consider PAPLEPKAPGDNATPEQMAKYAAELRRYINKLTRPRY [4058668], for which the IC50 with human Y4 receptor [3] came to 74 pM.

Molecule HAPLEPVYPGDNATPEQMAQYAADLRRYINMLTRPRY [compound of SEQ ID NO:53 (code 6650)] gave an IC50 with human Y4 receptor [1] of 170 pM.

In the experiment with human Y4 receptor [1], PAPLEPVYPGDNATPEQMAQYAADLRRYINMLTRPRY [compound of SEQ ID NO:56 (code 6653)] showed an IC50 of 210 pM.

For the molecule KAPLEPVYPGDNATPEQMAQYAADLRRYINMLTRPRY [compound of SEQ ID NO:52 (code 6647)], the IC50 with human Y4 receptor [1] turned out to be 210 pM.

As to DAPLEPVYPGDNATPEQMAQYAADLRRYINMLTRPRY [6652], in the experiment with human Y4 receptor [1], the IC50 worked out at 360 pM.

Molecule AAPLEPVYPGDNATPEQMAQYAADLRRYINLLTRPRY [6656] showed an IC50 with human Y4 receptor [1] of 220 pM.

Consider EAPLEPVYPGDNATPEQMAQYAADLRRYINMLTRPRY [6651], for which the IC50 with human Y4 receptor [1] stood at 350 pM.

In turn, APLEPKYPGDDATPEELAHYYSELRRYINKLTRPRY [4058707] showed a half-inhibitory concentration (IC50) with human Y4 receptor [3] of 89 pM. This counts as picomolar.

The molecule PLEPEYPGDNATPEELAKYAAELRRYINKLTRPRY [4058677] displayed a half-maximal inhibitory concentration (IC50) with human Y4 receptor [3] of 138 pM. Against the preceding molecule, the IC50 is about 1.6-fold higher.
